Target: untagged recombinant mouse TWEAK (mouse) (UniProt O54907)
Chain of UniProt O54907 (O54907 94-249): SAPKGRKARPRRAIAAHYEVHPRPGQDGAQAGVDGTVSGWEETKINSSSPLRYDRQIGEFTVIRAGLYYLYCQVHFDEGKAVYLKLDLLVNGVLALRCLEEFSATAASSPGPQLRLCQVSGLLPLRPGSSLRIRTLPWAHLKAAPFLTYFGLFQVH

A TWEAK (200 ng ml^-1)-induced canonical and non-canonical NF-kB signalling in mouse endothelial cells (MDEC), immunoblotting, with increasing doses of recombinant mouse sCD163 of 50 was found for recombinant mouse sCD163 (receptor) in this work.
